Experimental data as given in patent US20180162932A1 (ACADEMISCH MEDISCH CENTRUM, published 2018).
“And” between values parts separate entries of the source, which are not always exact repeats. Equal entries are not always repeated.

B2: mouse Noggin (other, UniProt P97466 28-232, looked up)
chain: QHYLHIRPAPSDNLPLVDLIEHPDPIFDPKEKDLNETLLRSLLGGHYDPGFMATSPPEDRPGGGGGPAGGAEDLAELDQLLRQRPSGAMPSEIKGLEFSEGLAQGKKQRLSKKLRRKLQMWLWSQTFCPVLYAWNDLGSRFWPRYVKVGSCFSKRSCSVPEGMVCKPSKSVHLTVLRWRCQRRGGQRCGWIPIQYPIISECKCSC
B3: human mature bone morphogenic protein 4 (ligand)
chain: KHHSQRARKKNKNCRRHSLYVDFSDVGWNDWIVAPPGYQAFYCHGDCPFPLADHLNSTNHAIVQTLVNSVNSSIPKACCVPTELSAISMLYLDEYDKVVLKNYQEMVVEGCGCR
notes: Recombinant, R&D Systems (314-BP-020); mature active dimer; also called BMP4; BMP-4

Columns and labels:
[1] = target: T1, mature bone morphogenic protein 2 (human, UniProt P12643 283-396); test: cell-based or functional assay
T1 sequence (P12643 283-396): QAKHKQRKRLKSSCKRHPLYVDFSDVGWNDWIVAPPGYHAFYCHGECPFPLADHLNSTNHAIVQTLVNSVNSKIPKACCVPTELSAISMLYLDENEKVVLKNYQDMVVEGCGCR

[2] = target: B3; test: cell-based or functional assay
mouse Noggin = target: B2; test: SPR (IBIS MX96), VHH or control on chip, BMP injected
Experimental: (§1) In a first set of experiments, controls and VHHs (either as monomers or dimers) were coupled to SPR chips and the measurement of BMP affinities was obtained by injecting the different BMPs to the plate.
(§2) Serial dilutions (2.0-10 μg/ml) of purified VHHs were spotted on an amine-specific SensEye gold-film gel-type SPRchip (Ssens), using a Continuous Flow Microspotter (Wasatch Microfluidics, Salt Lake City, Utah, United States) as described (Lokate et al., 2007). BMP binding was analyzed on an IBIS MX96 (IBIS Technologies, Enschede, The Netherlands) instrument by performing injections with dilution series (0.05-2.0 μg/ml) of recombinant BMPs on the VHH-coated chip. In each injection, BMPs were injected and incubated for 8 min, followed by 15 min thorough washing with binding buffer (PBS+0.05% Tween20+0.05% sodium azide) to measure dissociation. Epitope binning was done by injecting VHH dilutions (2.0 μg/ml) over the chip, immediately after the dissociation step. Injections with blank binding buffer were used as reference. After each concatenated injection, the chip was regenerated with 10mM glycine-HCl, pH 2.0. Experimental data were processed with SPRintX software (IBIS Technologies) and kinetic parameters were determined using Scrubber2 software (BioLogic Software, Campbell, ACT, Australia). Binding constants were obtained by global fitting to a one-site binding model.

[3] = target: B3; test: titration ELISA of purified VHH on immobilized BMP4
[4] = target: T2, human mature bone morphogenic protein 7 (human, UniProt P18075 293-431); test: SPR, VHH on chip, BMP injected
T2 construct: also called BMP7; BMP-7
T2 sequence: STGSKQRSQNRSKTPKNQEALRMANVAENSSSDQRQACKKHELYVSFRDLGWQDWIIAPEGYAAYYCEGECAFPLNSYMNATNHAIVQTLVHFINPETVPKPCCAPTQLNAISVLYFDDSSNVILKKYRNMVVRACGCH
Experimental: as §2

[5] = target: T3, human mature bone morphogenic protein 6 (human, UniProt P22004 375-513); test: SPR, VHH on chip, BMP injected
T3 construct: also called BMP6; BMP-6
T3 sequence: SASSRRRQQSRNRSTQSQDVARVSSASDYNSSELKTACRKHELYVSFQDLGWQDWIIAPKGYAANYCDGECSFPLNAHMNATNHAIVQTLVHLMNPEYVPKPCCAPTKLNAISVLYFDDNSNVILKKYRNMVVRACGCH
Experimental: as §2

[6] = target: T4, human mature bone morphogenic protein 5 (human, UniProt P22003 340-454); test: SPR, VHH on chip, BMP injected
T4 construct: Often printed as BMPS in the text; also called BMP5; BMPS (so in the source)
T4 sequence: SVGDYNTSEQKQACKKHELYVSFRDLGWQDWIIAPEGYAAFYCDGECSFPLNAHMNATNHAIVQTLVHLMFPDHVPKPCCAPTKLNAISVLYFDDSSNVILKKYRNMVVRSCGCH
Experimental: as §2

[7] = target: T1, mature bone morphogenic protein 2; test: SPR (IBIS), VHH spotted on the chip, BMP2 injected
Experimental: as §1, §2

[8] = target: T3, human mature bone morphogenic protein 6; test: summary of SPR results
[9] = target: B3; test: SPR (IBIS MX96), VHH or control on chip, BMP injected
Experimental: as §1, §2

[10] = target: B3; test: SPR, ratio of KD values
Experimental: as §1, §2

[11] = target: T4, human mature bone morphogenic protein 5; test: western blot of unreduced recombinant BMP, C4C4 as primary antibody

Work on “human Noggin (from UniProt Q13253 28-232)” yielded an IC50, BRE-luciferase, C2C12 cells [1] of 1.6 nM and an IC50, BRE-luciferase, C2C12 cells [2] of 0.54 nM.

In the case of “anti-BMP4 R&D (Clone 66119, Mouse IgG2B, MAB757) (antibody)”, the percent inhibition of the BMP4-specific signal at 100 ng/ml, BRE-luciferase, C2C12 cells [2] is reported as 30%.

B1: C8C8 homo-bihead (designed binder)
chain: EVQLVESGGGLVQAGGSLRLSCAASGRTFRINDMGWYRQAPGKSRDMVARITSGGNTNYADSVKGRFTISRDNAKNTVYLQMNSLKPEDTAVYYCNADGLRFDSTRYRPFDSWGQGTQVTVSSGGGGSGGGGSEVQLVESGGGLVQAGGSLRLSCAASGRTFRINDMGWYRQAPGKSRDMVARITSGGNTNYADSVKGRFTISRDNAKNTVYLQMNSLKPEDTAVYYCNADGLRFDSTRYRPFDSWGQGTQVTVSS
In the case of B1, the “IC50, BRE-luciferase, C2C12 cells” value [1] is reported as 1.21 nM, the “IC50, BRE-luciferase, C2C12 cells” value [2] is reported as roughly 0.45 nM and the “fold potency on BMP4 against BMP2, BRE-luciferase, C2C12 cells” value [2] is reported as 16 fold.

B2 was tested, and the “IC50, BRE-luciferase, C2C12 cells” value [1] was roughly 2.5 nM and the “IC50, BRE-luciferase, C2C12 cells” value [2] was roughly 0.615 nM.

B3 was tested, and the Kd (mouse Noggin) was 0.091 nM.

B4: VHH C4 (VHH)
VHH: EVQLVESGGGLVQAGGSLRLSCAASGRTFSTYAMGWFRQAPGKEREFVAAISKGGGITYYSDSVRGRFTISKENAKNTVYLQMNSLKPEDTAVYYCAADPVSSVAKSPVAYPYWGQGTQVTVSS
notes: Produced in E. coli periplasm with tags (anti-myc detection, TALON purification); also called C4 monomer; C4 monohead
With B4 the “EC50 (read off the curve)” value [3] was roughly 3 nM.

B5: VHH C8 (VHH)
VHH: EVQLVESGGGLVQAGGSLRLSCAASGRTFRINDMGWYRQAPGKSRDMVARITSGGNTNYADSVKGRFTISRDNAKNTVYLQMNSLKPEDTAVYYCNADGLRFDSTRYRPFDSWGQGTQVTVSS
notes: also called C8 monomer
B5: no binding [4]; no binding [5]; no binding [6]. B5: binds [7].

B6: VHH E7 (VHH)
VHH: EVQLVESGGGLVQAGGSLRLSCAASGSIRGFVAMAWYRQAPGKQREWVATVTNGGTLYGDSVKGRFTGSRDNAKNTVYLQMNSLKPEDTAVYYCALRQIGASGYDYWGQGTQVTVSS
notes: also called E7 monomer
B6: binds [8].

B7: C4C4 homo-bihead (designed binder)
chain: EVQLVESGGGLVQAGGSLRLSCAASGRTFSTYAMGWFRQAPGKEREFVAAISKGGGITYYSDSVRGRFTISKENAKNTVYLQMNSLKPEDTAVYYCAADPVSSVAKSPVAYPYWGQGTQVTVSSGGGGSGGGGSEVQLVESGGGLVQAGGSLRLSCAASGRTFSTYAMGWFRQAPGKEREFVAAISKGGGITYYSDSVRGRFTISKENAKNTVYLQMNSLKPEDTAVYYCAADPVSSVAKSPVAYPYWGQGTQVTVSS
notes: also called C4C4 dimer
B7 was tested, and the Kd [9] was 0.0097 nM, the “fold higher affinity than BMPR1a” value [10] was 70 fold and the “fold higher affinity than Noggin” value [10] was 10 fold. The binding result [11] was “no binding (tested: 0.1 µg/ml primary antibody)”, the “IC50, BRE-luciferase, C2C12 cells” value [2] was ~600 pM and 1.3 ng/ml and 45 nM and the “fold increase in inhibition against monomer C4, BRE-luciferase, C2C12 cells” value [2] was 9 fold.
